# B1: GpH7-B3 variant S337_19Q/GpL16-k0 (antibody, human IgG1, kappa)
# heavy: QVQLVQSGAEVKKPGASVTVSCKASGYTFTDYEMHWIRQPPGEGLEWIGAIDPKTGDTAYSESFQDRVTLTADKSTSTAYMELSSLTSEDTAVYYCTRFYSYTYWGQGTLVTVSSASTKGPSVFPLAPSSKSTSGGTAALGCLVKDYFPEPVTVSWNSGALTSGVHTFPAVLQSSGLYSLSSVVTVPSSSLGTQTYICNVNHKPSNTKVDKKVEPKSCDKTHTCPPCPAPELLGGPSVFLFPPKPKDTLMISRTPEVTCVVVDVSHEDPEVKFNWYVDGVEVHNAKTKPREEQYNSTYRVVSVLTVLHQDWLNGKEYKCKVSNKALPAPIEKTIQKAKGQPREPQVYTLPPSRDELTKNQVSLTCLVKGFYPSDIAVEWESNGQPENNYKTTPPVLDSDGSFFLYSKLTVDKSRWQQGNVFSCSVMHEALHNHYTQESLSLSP
# light: DIVMTQSPLSLPVTPGEPASISCQASESLVHSNRNTYLHWYLQKPGQSPQLLIYKVSNRFSGVPDRFSGSGSGTDFTLKISRVEAEDVGVYYCSQNTHVPPTFGQGTKVEIERTVAAPSVFIFPPSDEQLKSGTASVVCLLNNFYPREAKVQWKVDNALQSGNSQESVTEQDSKDSTYSLSSTLTLSKADYEKHKVYACEVTHQGLSSPVTKSFNRGEC
# notes: mutation in both H chains; also called Ho Ab S337_19Q; S337Q
# B2: GpH7-B3 variant T335_15Y/GpL16-k0 (antibody, human IgG1, kappa)
# heavy: not shown
# light: B1 light
# notes: mutation in both H chains; also called Ho Ab T335_15Y; T335Y
# B3: GpH7-B3 variant T335_11K/GpL16-k0 (antibody, human IgG1, kappa)
# heavy: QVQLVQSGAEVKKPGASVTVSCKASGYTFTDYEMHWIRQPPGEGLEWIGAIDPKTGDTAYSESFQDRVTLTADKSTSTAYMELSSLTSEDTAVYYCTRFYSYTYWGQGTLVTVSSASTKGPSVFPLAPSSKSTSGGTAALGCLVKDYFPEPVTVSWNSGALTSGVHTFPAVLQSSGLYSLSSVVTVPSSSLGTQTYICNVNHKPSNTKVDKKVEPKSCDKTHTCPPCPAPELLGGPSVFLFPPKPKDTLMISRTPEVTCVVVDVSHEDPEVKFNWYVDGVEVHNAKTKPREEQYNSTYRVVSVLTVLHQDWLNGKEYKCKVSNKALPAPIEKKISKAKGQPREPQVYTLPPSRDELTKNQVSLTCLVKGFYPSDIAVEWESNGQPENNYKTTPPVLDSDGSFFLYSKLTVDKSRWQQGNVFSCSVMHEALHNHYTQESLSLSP
# light: B1 light
# notes: mutation in both H chains; also called Ho Ab T335_11K; T335K
# B4: GpH7-B3 variant S337_08L/GpL16-k0 (antibody, human IgG1, kappa)
# heavy: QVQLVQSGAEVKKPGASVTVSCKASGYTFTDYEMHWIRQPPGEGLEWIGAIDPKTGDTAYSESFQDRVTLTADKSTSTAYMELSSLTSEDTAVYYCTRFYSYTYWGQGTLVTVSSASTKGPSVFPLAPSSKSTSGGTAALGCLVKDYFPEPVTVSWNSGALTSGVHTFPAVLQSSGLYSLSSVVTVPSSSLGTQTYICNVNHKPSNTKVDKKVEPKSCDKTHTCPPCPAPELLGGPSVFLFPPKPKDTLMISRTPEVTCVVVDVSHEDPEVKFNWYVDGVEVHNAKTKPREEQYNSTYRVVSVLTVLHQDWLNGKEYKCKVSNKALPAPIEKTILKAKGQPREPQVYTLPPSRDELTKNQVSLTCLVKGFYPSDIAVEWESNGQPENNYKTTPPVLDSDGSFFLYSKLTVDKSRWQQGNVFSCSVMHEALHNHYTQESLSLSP
# light: B1 light
# notes: mutation in both H chains; also called Ho Ab S337_08L; S337L
# B5: GpH7-B3 variant T335_04F/GpL16-k0 (antibody, human IgG1, kappa)
# heavy: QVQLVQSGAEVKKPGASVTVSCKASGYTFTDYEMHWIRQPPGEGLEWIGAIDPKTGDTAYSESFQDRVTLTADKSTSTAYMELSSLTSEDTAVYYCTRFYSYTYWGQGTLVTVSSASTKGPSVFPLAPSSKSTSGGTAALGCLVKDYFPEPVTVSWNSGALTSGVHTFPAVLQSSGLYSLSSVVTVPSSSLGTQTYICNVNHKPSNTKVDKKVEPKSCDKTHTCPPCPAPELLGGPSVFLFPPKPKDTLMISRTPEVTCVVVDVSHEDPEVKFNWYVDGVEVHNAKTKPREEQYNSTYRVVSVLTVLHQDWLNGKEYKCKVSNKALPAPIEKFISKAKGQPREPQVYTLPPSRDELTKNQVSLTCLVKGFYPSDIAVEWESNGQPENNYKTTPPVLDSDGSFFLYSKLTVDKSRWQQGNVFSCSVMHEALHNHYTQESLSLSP
# light: B1 light
# notes: mutation in both H chains; also called Ho Ab T335_04F; T335F
# B6: GpH7-B3 variant T335_07I/GpL16-k0 (antibody, human IgG1, kappa)
# heavy: not shown
# light: B1 light
# notes: mutation in both H chains; also called Ho Ab T335_07I; T335I
# B7: GpH7-B3 variant S337_07I/GpL16-k0 (antibody, human IgG1, kappa)
# heavy: not shown
# light: B1 light
# notes: mutation in both H chains; also called Ho Ab S337_07I; S337I
# B8: GpH7-B3 variant S324_19Q/GpL16-k0 (antibody, human IgG1, kappa)
# heavy: not shown
# light: B1 light
# notes: mutation in both H chains; also called Ho Ab S324_19Q; S324Q
# B9: GpH7-B3 variant S337_20W/GpL16-k0 (antibody, human IgG1, kappa)
# heavy: not shown
# light: B1 light
# notes: mutation in both H chains; also called Ho Ab S337_20W; S337W
# B10: GpH7-B3 variant S337_10E/GpL16-k0 (antibody, human IgG1, kappa)
# heavy: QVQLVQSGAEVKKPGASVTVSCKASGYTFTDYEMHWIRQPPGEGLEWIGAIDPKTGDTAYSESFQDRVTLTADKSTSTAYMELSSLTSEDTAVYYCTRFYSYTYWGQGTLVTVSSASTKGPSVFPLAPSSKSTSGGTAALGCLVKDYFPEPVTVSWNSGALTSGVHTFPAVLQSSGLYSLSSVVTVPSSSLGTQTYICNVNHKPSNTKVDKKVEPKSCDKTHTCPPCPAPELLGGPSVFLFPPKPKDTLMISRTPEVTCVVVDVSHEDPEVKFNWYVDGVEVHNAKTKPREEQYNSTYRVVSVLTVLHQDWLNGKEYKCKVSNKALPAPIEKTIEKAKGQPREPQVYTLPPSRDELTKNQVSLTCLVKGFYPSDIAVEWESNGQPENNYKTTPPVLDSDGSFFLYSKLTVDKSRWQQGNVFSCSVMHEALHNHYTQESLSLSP
# light: B1 light
# notes: mutation in both H chains; also called Ho Ab S337_10E; S337E
# B11: GpH7-B3 variant Y300_12R/GpL16-k0 (antibody, human IgG1, kappa)
# heavy: not shown
# light: B1 light
# notes: mutation in both H chains; also called Ho Ab Y300_12R; Y300R
# B12: GpH7-B3 variant S337_15Y/GpL16-k0 (antibody, human IgG1, kappa)
# heavy: not shown
# light: B1 light
# notes: mutation in both H chains; also called Ho Ab S337_15Y; S337Y
# B13: GpH7-B3 variant T335_05P/GpL16-k0 (antibody, human IgG1, kappa)
# heavy: not shown
# light: B1 light
# notes: mutation in both H chains; also called Ho Ab T335_05P; T335P
# B14: GpH7-B3 variant T335_12R/GpL16-k0 (antibody, human IgG1, kappa)
# heavy: not shown
# light: B1 light
# notes: mutation in both H chains; also called Ho Ab T335_12R; T335R
# B15: GpH7-B3 variant S337_12R/GpL16-k0 (antibody, human IgG1, kappa)
# heavy: not shown
# light: B1 light
# notes: mutation in both H chains; also called Ho Ab S337_12R; S337R
# B16: GpH7-B3 variant S337_02A/GpL16-k0 (antibody, human IgG1, kappa)
# heavy: not shown
# light: B1 light
# notes: mutation in both H chains; also called Ho Ab S337_02A; S337A
# B17: GpH7-B3 variant S337_01G/GpL16-k0 (antibody, human IgG1, kappa)
# heavy: not shown
# light: B1 light
# notes: mutation in both H chains; also called Ho Ab S337_01G; S337G
# B18: GpH7-B3 variant S337_04F/GpL16-k0 (antibody, human IgG1, kappa)
# heavy: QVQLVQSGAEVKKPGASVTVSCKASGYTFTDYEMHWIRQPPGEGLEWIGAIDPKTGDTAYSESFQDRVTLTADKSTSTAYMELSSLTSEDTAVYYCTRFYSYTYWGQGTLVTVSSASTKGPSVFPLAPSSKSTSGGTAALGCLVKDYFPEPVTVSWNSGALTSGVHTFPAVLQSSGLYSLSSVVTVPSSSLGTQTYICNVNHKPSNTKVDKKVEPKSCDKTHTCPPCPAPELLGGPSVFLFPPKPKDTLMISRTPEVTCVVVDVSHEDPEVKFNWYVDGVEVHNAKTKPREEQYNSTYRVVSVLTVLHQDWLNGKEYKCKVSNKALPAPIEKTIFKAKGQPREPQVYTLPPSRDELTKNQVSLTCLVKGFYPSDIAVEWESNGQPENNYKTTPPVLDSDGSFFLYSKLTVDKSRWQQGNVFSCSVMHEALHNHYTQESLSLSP
# light: B1 light
# notes: mutation in both H chains; also called Ho Ab S337_04F; S337F
# B19: GpH7-B3 variant S324_18N/GpL16-k0 (antibody, human IgG1, kappa)
# heavy: not shown
# light: B1 light
# notes: mutation in both H chains; also called Ho Ab S324_18N; S324N
# B20: GpH7-B3 variant S337_03V/GpL16-k0 (antibody, human IgG1, kappa)
# heavy: not shown
# light: B1 light
# notes: mutation in both H chains; also called Ho Ab S337_03V; S337V
# B21: GpH7-B3 variant S324_16H/GpL16-k0 (antibody, human IgG1, kappa)
# heavy: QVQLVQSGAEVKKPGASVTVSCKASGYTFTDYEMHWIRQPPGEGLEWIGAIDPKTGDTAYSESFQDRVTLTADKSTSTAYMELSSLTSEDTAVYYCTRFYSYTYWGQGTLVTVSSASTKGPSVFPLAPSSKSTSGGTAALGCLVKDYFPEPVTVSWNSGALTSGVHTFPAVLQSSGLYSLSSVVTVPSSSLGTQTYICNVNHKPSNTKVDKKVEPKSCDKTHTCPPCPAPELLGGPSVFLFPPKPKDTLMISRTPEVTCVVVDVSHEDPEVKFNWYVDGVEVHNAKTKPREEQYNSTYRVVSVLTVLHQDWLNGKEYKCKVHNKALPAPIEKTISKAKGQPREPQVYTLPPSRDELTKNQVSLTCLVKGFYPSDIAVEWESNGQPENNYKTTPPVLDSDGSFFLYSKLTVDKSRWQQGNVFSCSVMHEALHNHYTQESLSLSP
# light: B1 light
# notes: mutation in both H chains; also called Ho Ab S324_16H; S324H
# B22: GpH7-B3 variant S337_06M/GpL16-k0 (antibody, human IgG1, kappa)
# heavy: not shown
# light: B1 light
# notes: mutation in both H chains; also called Ho Ab S337_06M; S337M
# B23: GpH7-B3 variant T335_10E/GpL16-k0 (antibody, human IgG1, kappa)
# heavy: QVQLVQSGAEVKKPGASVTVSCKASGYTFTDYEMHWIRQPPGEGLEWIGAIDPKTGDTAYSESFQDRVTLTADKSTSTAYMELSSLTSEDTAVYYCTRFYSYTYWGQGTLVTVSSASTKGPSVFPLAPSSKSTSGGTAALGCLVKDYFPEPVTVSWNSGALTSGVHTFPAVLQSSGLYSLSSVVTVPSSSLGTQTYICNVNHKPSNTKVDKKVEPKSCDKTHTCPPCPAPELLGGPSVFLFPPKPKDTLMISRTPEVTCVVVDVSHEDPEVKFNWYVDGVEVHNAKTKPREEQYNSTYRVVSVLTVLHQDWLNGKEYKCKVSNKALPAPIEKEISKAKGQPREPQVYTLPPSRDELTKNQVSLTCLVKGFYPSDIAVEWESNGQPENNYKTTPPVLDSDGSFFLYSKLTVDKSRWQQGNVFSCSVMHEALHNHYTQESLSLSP
# light: B1 light
# notes: mutation in both H chains; also called Ho Ab T335_10E; T335E
# B24: GpH7-B3 variant T335_08L/GpL16-k0 (antibody, human IgG1, kappa)
# heavy: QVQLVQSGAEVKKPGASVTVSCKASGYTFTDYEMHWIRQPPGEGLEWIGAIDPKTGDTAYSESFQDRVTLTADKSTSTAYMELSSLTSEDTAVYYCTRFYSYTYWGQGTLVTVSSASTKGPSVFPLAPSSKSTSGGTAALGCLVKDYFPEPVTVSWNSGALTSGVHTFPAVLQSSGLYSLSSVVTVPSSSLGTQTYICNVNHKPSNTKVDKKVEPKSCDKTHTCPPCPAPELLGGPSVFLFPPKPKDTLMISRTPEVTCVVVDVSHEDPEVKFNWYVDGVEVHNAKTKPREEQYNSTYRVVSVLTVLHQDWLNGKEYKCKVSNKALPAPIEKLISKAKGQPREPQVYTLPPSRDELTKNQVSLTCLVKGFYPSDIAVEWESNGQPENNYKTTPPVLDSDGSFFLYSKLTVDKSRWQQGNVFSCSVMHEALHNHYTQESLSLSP
# light: B1 light
# notes: mutation in both H chains; also called Ho Ab T335_08L; T335L
# B25: GpH7-B3 variant T335_09D/GpL16-k0 (antibody, human IgG1, kappa)
# heavy: not shown
# light: B1 light
# notes: mutation in both H chains; also called Ho Ab T335_09D; T335D
# B26: GpH7-B3 variant V266_19Q/GpL16-k0 (antibody, human IgG1, kappa)
# heavy: not shown
# light: B1 light
# notes: mutation in both H chains; also called Ho Ab V266_19Q; V266Q
# B27: GpH7-B3 variant T335_06M/GpL16-k0 (antibody, human IgG1, kappa)
# heavy: not shown
# light: B1 light
# notes: mutation in both H chains; also called Ho Ab T335_06M; T335M
# B28: GpH7-B3 variant S324_20W/GpL16-k0 (antibody, human IgG1, kappa)
# heavy: not shown
# light: B1 light
# notes: mutation in both H chains; also called Ho Ab S324_20W; S324W
# B29: GpH7-B3 variant S337_09D/GpL16-k0 (antibody, human IgG1, kappa)
# heavy: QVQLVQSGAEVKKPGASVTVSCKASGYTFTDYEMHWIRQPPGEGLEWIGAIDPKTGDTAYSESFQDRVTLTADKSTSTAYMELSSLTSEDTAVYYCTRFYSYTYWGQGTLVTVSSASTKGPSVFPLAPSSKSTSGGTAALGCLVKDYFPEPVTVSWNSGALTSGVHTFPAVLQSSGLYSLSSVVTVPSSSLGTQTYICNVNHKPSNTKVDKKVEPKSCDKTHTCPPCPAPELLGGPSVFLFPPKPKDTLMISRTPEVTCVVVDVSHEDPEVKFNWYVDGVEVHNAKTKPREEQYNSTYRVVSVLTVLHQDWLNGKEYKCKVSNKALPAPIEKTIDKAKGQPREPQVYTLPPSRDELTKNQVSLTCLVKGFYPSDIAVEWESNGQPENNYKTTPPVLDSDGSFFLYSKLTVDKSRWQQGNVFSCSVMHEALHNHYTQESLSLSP
# light: B1 light
# notes: mutation in both H chains; also called Ho Ab S337_09D; S337D
# B30: GpH7-B3 variant S324_15Y/GpL16-k0 (antibody, human IgG1, kappa)
# heavy: not shown
# light: B1 light
# notes: mutation in both H chains; also called Ho Ab S324_15Y; S324Y
# Biological target: T1, FcγRIa extracellular domain with C-terminal His tag (human, UniProt P12314 16-292)
# T1 construct: extracellular domain; also called FcgRI; CD64; not shown: His tag at the C terminus
# T1 sequence (P12314 16-292): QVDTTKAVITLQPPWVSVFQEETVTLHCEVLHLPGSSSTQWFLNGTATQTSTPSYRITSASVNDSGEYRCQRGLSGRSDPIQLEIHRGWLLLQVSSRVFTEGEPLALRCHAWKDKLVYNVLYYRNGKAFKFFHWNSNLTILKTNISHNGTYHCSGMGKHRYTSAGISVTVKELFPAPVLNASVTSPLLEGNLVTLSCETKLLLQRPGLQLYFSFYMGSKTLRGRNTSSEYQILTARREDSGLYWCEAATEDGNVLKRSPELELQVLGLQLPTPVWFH
# Experiment: SPR Biacore, relative FcγRIa binding vs GpH7-B3/GpL16-k0
row,Ho/Con_1a,Binder
1,105 % of HoCon Ab (=100),B1
2,106 % of HoCon Ab (=100),B2
3,103 % of HoCon Ab (=100),B3
4,105 % of HoCon Ab (=100),B4
5,105 % of HoCon Ab (=100),B5
6,105 % of HoCon Ab (=100),B6
7,105 % of HoCon Ab (=100),B7
8,111 % of HoCon Ab (=100),B8
9,104 % of HoCon Ab (=100),B9
10,104 % of HoCon Ab (=100),B10
11,96.5 % of HoCon Ab (=100),B11
12,104 % of HoCon Ab (=100),B12
13,106 % of HoCon Ab (=100),B13
14,106 % of HoCon Ab (=100),B14
15,105 % of HoCon Ab (=100),B15
16,103 % of HoCon Ab (=100),B16
17,102 % of HoCon Ab (=100),B17
18,105 % of HoCon Ab (=100),B18
19,111 % of HoCon Ab (=100),B19
20,105 % of HoCon Ab (=100),B20
21,111 % of HoCon Ab (=100),B21
22,102 % of HoCon Ab (=100),B22
23,108 % of HoCon Ab (=100),B23
24,105 % of HoCon Ab (=100),B24
25,107 % of HoCon Ab (=100),B25
26,91.2 % of HoCon Ab (=100),B26
27,106 % of HoCon Ab (=100),B27
28,112 % of HoCon Ab (=100),B28
29,106 % of HoCon Ab (=100),B29
30,112 % of HoCon Ab (=100),B30

# — patent publication US20180155451A1 (published 2018)
